In article PMC2914828:

Target: alternative complex III (ACIII) subunit s5 (Chloroflexus aurantiacus strain J-10-fl (endogenous))
Experiment: cross-linking

- stoichiometry N: 2
Substance: alternative complex III (ACIII) subunit s5 (natural protein)
